The labels stand for the following.
B1: NRC3_wobSeed27_DR1_T5G_o1 (dsDNA)
DNA 1: GCACGCGGAGGACAAAGGTCAGAGCTACGCCAGTGAGCGATTGACAGCGTAGAATGAAGG
DNA 2: CCTTCATTCTACGCTGTCAATCGCTCACTGGCGTAGCTCTGACCTTTGTCCTCCGCGTGC
B2: NRC3_wobSeed135_DR5_T8G_o1 (dsDNA)
DNA 1: GCCGAACGAGGTCATTGACAGGACAGTGAATAGTAAGCGATTGACAGCGTAGAATGAAGG
DNA 2: CCTTCATTCTACGCTGTCAATCGCTTACTATTCACTGTCCTGTCAATGACCTCGTTCGGC
B3: NRC3_wobSeed135_DR5_A29G_o1 (dsDNA)
DNA 1: B2 DNA 1 with G8T, A29G
DNA 2: B2 DNA 2 with T32C, C53A
B4: NRC3_wobSeed135_DR5_T8A_o1 (dsDNA)
DNA 1: B2 DNA 1 with G8A
DNA 2: B2 DNA 2 with C53T
B5: NRC3_wobSeed14_DR0_T8G_o1 (dsDNA)
DNA 1: GCCCTGCGAGGTCATGGTCAGCTAATCTACAGTATGGCGATTGACAGCGTAGAATGAAGG
DNA 2: CCTTCATTCTACGCTGTCAATCGCCATACTGTAGATTAGCTGACCATGACCTCGCAGGGC
B6: NRC3_wobSeed39_DR1_T8G_o1 (dsDNA)
DNA 1: GCCGAACGAGGTCAAAGGACAGTGAAAGGCGACGTAGCGATTGACAGCGTAGAATGAAGG
DNA 2: CCTTCATTCTACGCTGTCAATCGCTACGTCGCCTTTCACTGTCCTTTGACCTCGTTCGGC
B7: NRC3_wobSeed39_DR1_G22T_o1 (dsDNA)
DNA 1: B6 DNA 1 with G8T, G22T
DNA 2: B6 DNA 2 with C39A, C53A
B8: NRC3_wobSeed136_DR5_T16A_o1 (dsDNA)
DNA 1: GCTAGCCTAGGTCATACAGGGGCCAGTATAGAAAGCGCGATTGACAGCGTAGAATGAAGG
DNA 2: CCTTCATTCTACGCTGTCAATCGCGCTTTCTATACTGGCCCCTGTATGACCTAGGCTAGC
B9: NRC3_wobSeed18_DR0_C18T_o1 (dsDNA)
DNA 1: GCGATACAGGGTCAAGGTCAGAGTACGCGTATTGATGCGATTGACAGCGTAGAATGAAGG
DNA 2: CCTTCATTCTACGCTGTCAATCGCATCAATACGCGTACTCTGACCTTGACCCTGTATCGC
B10: NRC3_wobSeed92_DR3_T13C_o1 (dsDNA)
DNA 1: GCAGAATGAGGTCATTAAGATCAGGGAATTGCGGTCGCGATTGACAGCGTAGAATGAAGG
DNA 2: CCTTCATTCTACGCTGTCAATCGCGACCGCAATTCCCTGATCTTAATGACCTCATTCTGC
B11: NRC3_wobSeed20_DR0_T13C_o1 (dsDNA)
DNA 1: GCAGAATGAGGTCAAGATCAGGGAAACAGAATACATGCGATTGACAGCGTAGAATGAAGG
DNA 2: CCTTCATTCTACGCTGTCAATCGCATGTATTCTGTTTCCCTGATCTTGACCTCATTCTGC
B12: NRC3_wobSeed63_DR2_T8A_o1 (dsDNA)
DNA 1: GCCGAACAAGGTCACCAGGACAGTGAAGAGGTTGGAGCGATTGACAGCGTAGAATGAAGG
DNA 2: CCTTCATTCTACGCTGTCAATCGCTCCAACCTCTTCACTGTCCTGGTGACCTTGTTCGGC
B13: NRC3_wobSeed13_DR0_G21A_o1 (dsDNA)
DNA 1: GCCGTCCAAGGTCAAGGTCAATGAAAGAGACTCGAAGCGATTGACAGCGTAGAATGAAGG
DNA 2: CCTTCATTCTACGCTGTCAATCGCTTCGAGTCTCTTTCATTGACCTTGACCTTGGACGGC
B14: NRC3_wobSeed13_DR0_C13T_o1 (dsDNA)
DNA 1: B13 DNA 1 with C13T, A21G
DNA 2: B13 DNA 2 with T40C, G48A
B15: NRC3_wobSeed116_DR4_T13C_o1 (dsDNA)
DNA 1: GCAGAATGAGGTCACCAAAGATCAGGGAAACGCTTGGCGATTGACAGCGTAGAATGAAGG
DNA 2: CCTTCATTCTACGCTGTCAATCGCCAAGCGTTTCCCTGATCTTTGGTGACCTCATTCTGC
B16: NRC3_wobSeed114_DR4_T5A_o1 (dsDNA)
DNA 1: GCAAAACAGGGTCATCGTAGGCCAGAGTACGCACAGGCGATTGACAGCGTAGAATGAAGG
DNA 2: CCTTCATTCTACGCTGTCAATCGCCTGTGCGTACTCTGGCCTACGATGACCCTGTTTTGC
B17: NRC3_wobSeed114_DR4_G20C_o1 (dsDNA)
DNA 1: B16 DNA 1 with A5T, G20C
DNA 2: B16 DNA 2 with C41G, T56A
B18: NRC3_wobSeed114_DR4_C7A_o1 (dsDNA)
DNA 1: B16 DNA 1 with A5T, C7A
DNA 2: B16 DNA 2 with G54T, T56A
B19: NRC3_wobSeed10_DR0_T4G_o1 (dsDNA)
DNA 1: GCAGCGAAAGGTCGAGGTGAGTATAGAGAAAGGGAAGCGATTGACAGCGTAGAATGAAGG
DNA 2: CCTTCATTCTACGCTGTCAATCGCTTCCCTTTCTCTATACTCACCTCGACCTTTCGCTGC
B20: NRC3_wobSeed88_DR3_C21A_o1 (dsDNA)
DNA 1: GCTAGCCTAGGTCATGCGGGACAGTATAGTGTCGGCGCGATTGACAGCGTAGAATGAAGG
DNA 2: CCTTCATTCTACGCTGTCAATCGCGCCGACACTATACTGTCCCGCATGACCTAGGCTAGC
B21: NRC3_wobSeed140_DR5_T13C_o1 (dsDNA)
DNA 1: GCAGAATGAGGTCATACGTAGATCAGGGAAGAAAGTGCGATTGACAGCGTAGAATGAAGG
DNA 2: CCTTCATTCTACGCTGTCAATCGCACTTTCTTCCCTGATCTACGTATGACCTCATTCTGC
B22: NRC3_wobSeed87_DR3_T8A_o1 (dsDNA)
DNA 1: GCCGAACAAGGTCATCCAGGACAGTGAATACATTGAGCGATTGACAGCGTAGAATGAAGG
DNA 2: CCTTCATTCTACGCTGTCAATCGCTCAATGTATTCACTGTCCTGGATGACCTTGTTCGGC
B23: NRC3_wobSeed87_DR3_A5C_o1 (dsDNA)
DNA 1: B22 DNA 1 with A5C, A8T
DNA 2: B22 DNA 2 with T53A, T56G
B24: NRC3_wobSeed141_DR5_A29T_o1 (dsDNA)
DNA 1: GCAGTCAAAGTTCAGGACGAGGTAACGTTAAGCACGGCGATTGACAGCGTAGAATGAAGG
DNA 2: CCTTCATTCTACGCTGTCAATCGCCGTGCTTAACGTTACCTCGTCCTGAACTTTGACTGC
B25: NRC3_wobSeed134_DR5_G26C_o1 (dsDNA)
DNA 1: GCGCTGCTAGGTCAACTGATGGTCACCTAAAGCTCGGCGATTGACAGCGTAGAATGAAGG
DNA 2: CCTTCATTCTACGCTGTCAATCGCCGAGCTTTAGGTGACCATCAGTTGACCTAGCAGCGC
B26: NRC3_wobSeed34_DR1_T4A_o1 (dsDNA)
DNA 1: GCAACGAAAGGTCGAAGGTGAGTATACCCACCCGAAGCGATTGACAGCGTAGAATGAAGG
DNA 2: CCTTCATTCTACGCTGTCAATCGCTTCGGGTGGGTATACTCACCTTCGACCTTTCGTTGC
B27: NRC3_wobSeed34_DR1_A21C_o1 (dsDNA)
DNA 1: B26 DNA 1 with A4T, A21C
DNA 2: B26 DNA 2 with T40G, T57A
B28: NRC3_wobSeed113_DR4_G29C_o1 (dsDNA)
DNA 1: GCATATGTAGGTTAGCTGGGGTCATTCACACTAGGCGCGATTGACAGCGTAGAATGAAGG
DNA 2: CCTTCATTCTACGCTGTCAATCGCGCCTAGTGTGAATGACCCCAGCTAACCTACATATGC
B29: NRC3_wobSeed138_DR5_G19C_o1 (dsDNA)
DNA 1: GCGATACAGGGTCAGCTACAGGCCAGAGTATGGAAAGCGATTGACAGCGTAGAATGAAGG
DNA 2: CCTTCATTCTACGCTGTCAATCGCTTTCCATACTCTGGCCTGTAGCTGACCCTGTATCGC
B30: NRC3_wobSeed76_DR3_G9C_o1 (dsDNA)
DNA 1: GCCCTACTCGGCCAAAAAGGTCATTGATGCCGATAAGCGATTGACAGCGTAGAATGAAGG
DNA 2: CCTTCATTCTACGCTGTCAATCGCTTATCGGCATCAATGACCTTTTTGGCCGAGTAGGGC
B31: NRC3_wobSeed42_DR1_C7A_o1 (dsDNA)
DNA 1: GCTATAAAGGGTCAAAGGCCAGAGTACGAATGTCGAGCGATTGACAGCGTAGAATGAAGG
DNA 2: CCTTCATTCTACGCTGTCAATCGCTCGACATTCGTACTCTGGCCTTTGACCCTTTATAGC

Residue numbers refer to the chain shown, from its start.

Sequence of FXR:RXRa (Q96RI1 whole entry, chain 1 of 2): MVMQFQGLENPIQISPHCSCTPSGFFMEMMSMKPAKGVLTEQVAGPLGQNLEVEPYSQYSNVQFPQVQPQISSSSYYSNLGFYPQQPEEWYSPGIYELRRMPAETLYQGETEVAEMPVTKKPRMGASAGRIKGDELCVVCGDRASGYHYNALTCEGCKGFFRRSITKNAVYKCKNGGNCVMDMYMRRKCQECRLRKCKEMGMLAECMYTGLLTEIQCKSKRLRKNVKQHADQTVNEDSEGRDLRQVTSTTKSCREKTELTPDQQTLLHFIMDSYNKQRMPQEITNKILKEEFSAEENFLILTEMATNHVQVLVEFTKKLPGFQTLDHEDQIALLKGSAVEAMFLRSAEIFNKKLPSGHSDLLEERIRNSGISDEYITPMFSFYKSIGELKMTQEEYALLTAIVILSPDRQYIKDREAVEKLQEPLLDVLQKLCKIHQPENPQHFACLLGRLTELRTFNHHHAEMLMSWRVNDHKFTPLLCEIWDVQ
Sequence of FXR:RXRa (P19793 whole entry, chain 2 of 2): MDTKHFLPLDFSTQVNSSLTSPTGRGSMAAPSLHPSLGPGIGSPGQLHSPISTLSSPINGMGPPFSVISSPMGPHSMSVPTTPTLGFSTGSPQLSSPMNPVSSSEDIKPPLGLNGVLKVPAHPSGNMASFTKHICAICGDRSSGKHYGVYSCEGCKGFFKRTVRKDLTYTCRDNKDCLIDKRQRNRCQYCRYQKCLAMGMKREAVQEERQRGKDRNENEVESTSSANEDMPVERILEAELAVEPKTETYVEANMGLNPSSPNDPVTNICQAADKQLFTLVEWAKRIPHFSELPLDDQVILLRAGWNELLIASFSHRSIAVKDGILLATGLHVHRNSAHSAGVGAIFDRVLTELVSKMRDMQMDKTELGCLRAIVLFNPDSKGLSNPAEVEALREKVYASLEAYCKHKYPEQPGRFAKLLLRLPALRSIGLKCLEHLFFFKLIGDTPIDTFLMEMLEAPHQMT

The data set addresses FXR:RXRa (Homo sapiens, UniProt Q96RI1;P19793 full;full). The experiment in a line: no ligand; PBM; 270 nM : 90 nM RXRa; PBS pH 7.4, 2% milk, 0.02% Triton X-100, 1 mM DTT, BSA, 0.4 mg/ml salmon testes DNA. The conditions noted are these: tags: His kept;His cleaved; copies: 1;1; label: surface-attached array probe. The gist of the method: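 Binding z-scores take random background probes as their reference. They come from custom Agilent 4×180K protein-binding microarrays incubated 1 h with ligand-free nuclear receptor dimers, with antibodies against each partner (one per run) detecting binding. Scanned fluorescence was regression-normalized.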
As to B1, the binding signal is 4.39 PBM z-score against 500 random probes. B2: the binding signal was 7.83 PBM z-score against 500 random probes. For the molecule B3, the binding signal is 4.02 PBM z-score against 500 random probes. As to B4, the binding signal was 7.74 PBM z-score against 500 random probes. In the case of B5, the binding signal was 7.8 PBM z-score against 500 random probes.

With B6, the binding signal was 8.11 PBM z-score against 500 random probes. Consider B7, for which the binding signal is 4.46 PBM z-score against 500 random probes. Consider B8, for which the binding signal is 4.09 PBM z-score against 500 random probes. As to B9, the binding signal was 7.81 PBM z-score against 500 random probes.

As to B10, the binding signal is 7.7 PBM z-score against 500 random probes. For B11, the binding signal is 7.87 PBM z-score against 500 random probes. B12: the binding signal was 7.74 PBM z-score against 500 random probes. For the molecule B13, the binding signal is 8.19 PBM z-score against 500 random probes. The figure for B14 is 4.12 PBM z-score against 500 random probes; for B15 it is 7.91 PBM z-score against 500 random probes. B16: the binding signal was 7.8 PBM z-score against 500 random probes. The result for B17 reads 7.71 PBM z-score against 500 random probes; that for B18, 7.8 PBM z-score against 500 random probes. The result for B19 reads 4.31 PBM z-score against 500 random probes. With B20, the binding signal was 4.37 PBM z-score against 500 random probes. As to B21, the binding signal was 8.1 PBM z-score against 500 random probes. In the case of B22, the binding signal was 8.1 PBM z-score against 500 random probes. Turning to B23, the binding signal was 4.33 PBM z-score against 500 random probes.

Turning to B24, the binding signal is 4.29 PBM z-score against 500 random probes. As for B25, the binding signal was 4.42 PBM z-score against 500 random probes. On to B26, for which the binding signal was 4.23 PBM z-score against 500 random probes. Regarding B27, the binding signal was 4.14 PBM z-score against 500 random probes. As to B28, the binding signal was 4.06 PBM z-score against 500 random probes. Turning to B29, the binding signal was 4.25 PBM z-score against 500 random probes. On to B30, for which the binding signal was 3.98 PBM z-score against 500 random probes.

With B31, the binding signal is 7.71 PBM z-score against 500 random probes.

Source of the values: PMC6555819, “Comprehensive study of nuclear receptor DNA binding provides a revised framework for understanding receptor specificity”.
